B1: CLEC14A with regions 97-108 of CD141 (receptor)
chain: not shown
notes: also called this mutant

Columns and labels:
[1] = target: T1, MMRN2 overexpressed in HEK293T cells (human, UniProt Q9H8L6 23-949); experiment: far Western blot of lysates of transfected HEK293T cells, probed with MMRN2 protein lysate
T1 construct: Used as cell lysate; also called full-length human MMRN2 with a His tag; hMMRN2; not shown: His tag (vector pHL-Avitag3)
T1 sequence: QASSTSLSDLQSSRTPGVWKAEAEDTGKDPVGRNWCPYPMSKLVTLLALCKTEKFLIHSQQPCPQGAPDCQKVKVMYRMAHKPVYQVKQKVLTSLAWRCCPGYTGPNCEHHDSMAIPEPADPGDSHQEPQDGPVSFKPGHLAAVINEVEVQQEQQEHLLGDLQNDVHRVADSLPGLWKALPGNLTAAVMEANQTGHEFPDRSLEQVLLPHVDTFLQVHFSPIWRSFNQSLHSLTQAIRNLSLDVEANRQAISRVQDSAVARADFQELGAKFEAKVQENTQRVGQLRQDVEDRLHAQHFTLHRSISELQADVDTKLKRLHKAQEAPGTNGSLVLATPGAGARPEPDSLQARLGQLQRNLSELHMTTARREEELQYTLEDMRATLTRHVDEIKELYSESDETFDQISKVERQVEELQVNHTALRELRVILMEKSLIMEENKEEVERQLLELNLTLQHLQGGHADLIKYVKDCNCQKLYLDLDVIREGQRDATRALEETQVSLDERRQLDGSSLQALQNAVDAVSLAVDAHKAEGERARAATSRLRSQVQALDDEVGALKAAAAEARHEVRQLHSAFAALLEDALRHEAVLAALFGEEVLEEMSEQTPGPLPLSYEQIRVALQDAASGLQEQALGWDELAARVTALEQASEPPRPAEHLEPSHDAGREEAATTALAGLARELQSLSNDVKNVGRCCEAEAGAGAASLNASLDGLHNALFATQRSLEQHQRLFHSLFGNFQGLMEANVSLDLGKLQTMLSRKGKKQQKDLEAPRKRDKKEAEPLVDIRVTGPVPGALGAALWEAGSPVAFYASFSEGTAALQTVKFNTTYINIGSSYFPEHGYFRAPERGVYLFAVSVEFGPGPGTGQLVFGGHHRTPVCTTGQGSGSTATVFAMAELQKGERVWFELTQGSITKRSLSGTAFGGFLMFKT
Text: HEK293T cells were mock transfected or transfected with pCS2 vectors containing CLEC14A wild type (WT) or constructs with each major domain deleted (Δ) with an N-terminal HA tag. Upon far western blotting with MMRN2 protein lysate, binding can be seen in all mutants except those missing the C-type lectin domain (CTLD) or the sushi domain. An anti-HA blot was included to show all mutant proteins were expressed.

[2] = target: T1, MMRN2 overexpressed in HEK293T cells; experiment: method for MMRN2 not described
[3] = target: T2, wild type thrombomodulin with GFP tag (UniProt P07204 19-575); experiment: flow cytometry, HEK293T Thrombomodulin CD141 WT GFP, GFP-positive cells gated (R1)
T2 construct: whole, on cells; Expressed in HEK293T cells; also called WT CD141; CD141; not shown: C-terminal GFP tag
T2 sequence (P07204 19-575): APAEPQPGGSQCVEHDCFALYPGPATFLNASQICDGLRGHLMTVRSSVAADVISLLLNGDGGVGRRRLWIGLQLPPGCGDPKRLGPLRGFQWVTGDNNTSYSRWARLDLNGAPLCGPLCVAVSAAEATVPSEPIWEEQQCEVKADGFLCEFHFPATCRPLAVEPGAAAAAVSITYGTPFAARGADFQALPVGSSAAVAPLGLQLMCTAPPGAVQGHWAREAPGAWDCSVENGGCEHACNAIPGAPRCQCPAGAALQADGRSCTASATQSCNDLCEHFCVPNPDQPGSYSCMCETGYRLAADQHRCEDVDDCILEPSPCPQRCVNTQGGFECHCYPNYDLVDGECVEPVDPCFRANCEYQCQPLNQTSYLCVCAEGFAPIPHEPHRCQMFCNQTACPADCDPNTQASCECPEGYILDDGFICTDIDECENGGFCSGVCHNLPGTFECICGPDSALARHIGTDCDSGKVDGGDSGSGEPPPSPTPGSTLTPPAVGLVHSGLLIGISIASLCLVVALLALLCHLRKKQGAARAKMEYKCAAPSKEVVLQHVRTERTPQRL

Chimera 5 = target: T3, Chimera 5; experiment: flow cytometry, HEK293T Chimera 5 GFP, GFP-positive cells gated (R1)
T3 construct: GFP fusion; also called CLEC14A with CTLD of CD141; CTLD of thrombomodulin, rest CLEC14A
T3 sequence (chain, as listed by the source mutant limits assumed): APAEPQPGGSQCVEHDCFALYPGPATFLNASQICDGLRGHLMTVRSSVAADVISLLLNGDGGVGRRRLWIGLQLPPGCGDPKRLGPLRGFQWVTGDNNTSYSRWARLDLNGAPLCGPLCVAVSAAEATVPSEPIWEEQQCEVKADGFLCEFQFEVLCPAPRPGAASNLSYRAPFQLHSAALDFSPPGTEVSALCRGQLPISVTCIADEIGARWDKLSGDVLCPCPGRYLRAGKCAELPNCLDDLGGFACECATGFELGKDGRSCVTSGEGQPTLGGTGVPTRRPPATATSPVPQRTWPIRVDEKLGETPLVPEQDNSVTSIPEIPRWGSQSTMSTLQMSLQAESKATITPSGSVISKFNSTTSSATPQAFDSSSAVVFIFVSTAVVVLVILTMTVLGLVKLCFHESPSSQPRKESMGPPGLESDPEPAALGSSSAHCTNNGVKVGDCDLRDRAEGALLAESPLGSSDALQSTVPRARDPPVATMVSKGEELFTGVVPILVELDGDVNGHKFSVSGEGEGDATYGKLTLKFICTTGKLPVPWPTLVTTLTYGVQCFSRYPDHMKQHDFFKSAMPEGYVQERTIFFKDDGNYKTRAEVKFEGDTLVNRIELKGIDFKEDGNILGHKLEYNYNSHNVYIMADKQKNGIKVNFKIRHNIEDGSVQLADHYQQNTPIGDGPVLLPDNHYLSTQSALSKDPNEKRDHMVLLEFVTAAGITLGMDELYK

murine CLEC14A-Fc = target: T4, murine CLEC14A-Fc (mouse, UniProt Q8VCP9 22-386, limits assumed); experiment: ELISA, hybridoma supernatant on absorbed antigen
T4 construct: Murine CLEC14A protein with a human Fc tag, made in HEK293T cells; also called CM; mCLEC14A-Fc; not shown: human Fc tag
T4 sequence (looked up): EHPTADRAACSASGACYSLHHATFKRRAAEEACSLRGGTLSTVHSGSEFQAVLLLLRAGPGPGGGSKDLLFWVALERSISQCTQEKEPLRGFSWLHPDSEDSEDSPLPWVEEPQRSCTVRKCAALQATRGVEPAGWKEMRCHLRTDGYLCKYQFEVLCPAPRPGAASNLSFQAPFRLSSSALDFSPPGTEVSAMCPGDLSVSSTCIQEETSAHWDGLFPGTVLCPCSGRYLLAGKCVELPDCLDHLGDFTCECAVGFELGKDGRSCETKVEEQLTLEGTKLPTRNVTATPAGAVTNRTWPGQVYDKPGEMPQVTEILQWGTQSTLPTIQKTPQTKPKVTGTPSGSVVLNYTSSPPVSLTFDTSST

[4] = target: T5, CLEC14A wild type with a C terminal GFP tag (human, UniProt Q86T13 22-490); experiment: flow cytometry, HEK293T CLEC14A WT GFP, GFP-positive cells gated (R1); filled histogram is the control (files named IgG)
T5 construct: Expressed in HEK293T cells; GFP-positive cells gated; also called WT CLEC14A; not shown: C-terminal GFP tag
T5 sequence: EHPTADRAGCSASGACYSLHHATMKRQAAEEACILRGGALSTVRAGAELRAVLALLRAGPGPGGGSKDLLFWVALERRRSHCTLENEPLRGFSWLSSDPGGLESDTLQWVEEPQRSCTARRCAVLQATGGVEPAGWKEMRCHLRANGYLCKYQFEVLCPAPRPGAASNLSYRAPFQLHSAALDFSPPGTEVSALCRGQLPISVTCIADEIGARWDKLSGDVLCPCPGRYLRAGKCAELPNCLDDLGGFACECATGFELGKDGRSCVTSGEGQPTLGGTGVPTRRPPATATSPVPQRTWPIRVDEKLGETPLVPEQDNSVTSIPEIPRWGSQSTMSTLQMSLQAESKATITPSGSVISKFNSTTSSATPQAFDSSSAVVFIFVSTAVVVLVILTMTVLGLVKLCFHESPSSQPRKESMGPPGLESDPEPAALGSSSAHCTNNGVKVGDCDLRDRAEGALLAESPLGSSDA

human CLEC14A-ECD-Fc = target: T6, human CLEC14A-ECD-Fc (human, UniProt Q86T13 22-396); experiment: pre-incubation of CLEC14A-ECD-Fc with antibody before MMRN2 pull-down
T6 construct: also called CLEC14A-Fc; hCLEC14A-Fc; not shown: human Fc tag from the pcDNA3-Fc plasmid
T6 sequence: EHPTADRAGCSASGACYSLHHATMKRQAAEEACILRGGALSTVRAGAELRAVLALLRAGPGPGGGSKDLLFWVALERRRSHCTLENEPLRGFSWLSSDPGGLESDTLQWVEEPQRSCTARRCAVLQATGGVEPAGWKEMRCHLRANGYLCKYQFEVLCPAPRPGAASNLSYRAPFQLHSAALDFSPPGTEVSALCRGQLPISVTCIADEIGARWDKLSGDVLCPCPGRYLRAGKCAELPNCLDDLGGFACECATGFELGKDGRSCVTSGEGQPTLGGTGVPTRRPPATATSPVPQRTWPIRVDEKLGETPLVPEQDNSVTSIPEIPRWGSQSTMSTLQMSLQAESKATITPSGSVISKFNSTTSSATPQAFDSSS
Procedure: Human CLEC14A-ECD-Fc was bound to protein A beads, blocked in 20% FCS and then incubated with each blocking condition. This was then added to lysates of HEK293T cells overexpressing full-length human MMRN2 with a His tag. Pre-incubating with CRT1, CRT4 and CRT5 decreased the levels of MMRN2 pulled down by CLEC14A-ECD-Fc.
To determine which CLEC14A monoclonal antibodies could inhibit the binding of MMRN2 to CLEC14A, CLEC14A-ECD-Fc was pre-incubated with increasing concentrations of mIgG1, or CR1-5, prior to incubation with lysates from HEK293T cells overexpressing MMRN2. Precipitates were then separated and probed for MMRN2 or CLEC14A-ECD-Fc. […] This confirms that antibodies C1, 4 and 5 bind CLEC14a on an epitope that is distinct from the one that C2 and 3 monoclonal antibodies bind and thus specifically block the MMRN2 interaction with CLEC14A.

Chimera 6 = target: T7, Chimera 6; experiment: flow cytometry, HEK293T Chimera 6 GFP, GFP-positive cells gated (R1); filled histogram is the control (files named IgG)
T7 construct: GFP fusion; also called CLEC14A with SUSHI of CD141; Sushi of thrombomodulin

[5] = target: B1; experiment: flow cytometry, HEK293T 97-108 Chimera GFP, GFP-positive cells gated (R1)
[6] = target: T8, human CLEC14A, full length (human, UniProt Q86T13 22-490); experiment: fluorescent imaging of HUVECs treated with the drug conjugate of CRT3, 0 and 90 minutes by the legend
T8 construct: also called CLEC14A on HUVECs (endogenous); CHO cells expressing full length human CLEC14A
T8 sequence: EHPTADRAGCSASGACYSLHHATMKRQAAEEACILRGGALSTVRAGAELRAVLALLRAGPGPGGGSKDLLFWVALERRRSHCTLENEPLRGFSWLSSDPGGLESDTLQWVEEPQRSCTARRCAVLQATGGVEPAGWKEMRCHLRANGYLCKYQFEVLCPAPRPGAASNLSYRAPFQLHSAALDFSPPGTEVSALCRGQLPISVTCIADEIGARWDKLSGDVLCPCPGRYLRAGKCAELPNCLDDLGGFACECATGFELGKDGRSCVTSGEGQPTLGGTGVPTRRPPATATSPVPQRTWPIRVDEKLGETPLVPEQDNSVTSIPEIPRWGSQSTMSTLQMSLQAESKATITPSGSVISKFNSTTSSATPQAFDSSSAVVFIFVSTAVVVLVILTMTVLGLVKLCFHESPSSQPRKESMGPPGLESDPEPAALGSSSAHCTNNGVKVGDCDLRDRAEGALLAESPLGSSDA
Procedure: HUVECs were treated with CRT-3 ADC and fluorescent imaging was carried out to determine the localisation of CRT-3 after 0 and 90 minutes. Further, the cytotoxicity was measured using a Cell Titre Glo luminescent cell viability assay and the results are shown in FIG. 18B. As described above, 1 million Lewis lung carcinoma cells were injected subcutaneously into the right flank of 2 mice and allowed to grow to a visible size. 1 mg/kg of CRT-3-ADC or B12-ADC (control) was administered through tail vein injections.

| Binder | binding result [1] | binding result [2] | binding result [3] | binding result (Chimera 5) | binding result (murine CLEC14A-Fc) | binding result [4] | binding result (human CLEC14A-ECD-Fc) | binding result (Chimera 6) | binding result [5] | binding result [6] |
| --- | --- | --- | --- | --- | --- | --- | --- | --- | --- | --- |
| HA-CLEC14A (receptor, also called CLEC14A wild type (WT) with an N-terminal HA tag; not shown: N-terminal HA tag) EHPTADRAGCSASGACYSLHHATMKRQAAEEACILRGGALSTVRAGAELRAVLALLRAGPGPGGGSKDLLFWVALERRRSHCTLENEPLRGFSWLSSDPGGLESDTLQWVEEPQRSCTARRCAVLQATGGVEPAGWKEMRCHLRANGYLCKYQFEVLCPAPRPGAASNLSYRAPFQLHSAALDFSPPGTEVSALCRGQLPISVTCIADEIGARWDKLSGDVLCPCPGRYLRAGKCAELPNCLDDLGGFACECATGFELGKDGRSCVTSGEGQPTLGGTGVPTRRPPATATSPVPQRTWPIRVDEKLGETPLVPEQDNSVTSIPEIPRWGSQSTMSTLQMSLQAESKATITPSGSVISKFNSTTSSATPQAFDSSSAVVFIFVSTAVVVLVILTMTVLGLVKLCFHESPSSQPRKESMGPPGLESDPEPAALGSSSAHCTNNGVKVGDCDLRDRAEGALLAESPLGSSDA | binds | – | – | – | – | – | – | – | – | – |
| B1 | – | no binding | – | – | – | – | – | – | – | – |
| CRT1 (antibody, IgG1, V domains shown, also called C1; CR1) VH: EVQLQQSGAELMKPGASVKISCKATGYTFSSYWIEWVKQRPGHGLEWIGEILPGSGSTNYNEKFKGKATFTADTSSNTAYMQLSSLTSEDSAVYYCARGGDYDEEYYVMDYWGQGTSVTV VL: QIVLTQSPAIMSASPGEKVTMTCSASSSVSYMYWYQQKPGSSPRLLIYDTSNLASGVPVRFSGSGSGTSYSLTISRMEAEDAATYYCQQWSSYPLTFGAGTKLELKR | – | – | no binding | no binding | binds | binds | binds | binds | no binding | – |
| CRT4 (antibody, IgG1, V domains shown, also called C4) VH: QVQLQQSGAELMKPGASVKISCKATGYTFSSYWIEWVNRRPGHGLEWIGEILPGSGSTNYNEKFKGKATFTADTSSNTAYMQLSSLTSEDSAVYYCARGGDYDEEYYLMDYWGQGTTLTVSS VL: QIVLTQSPAIMSASPGEKVTMTCSASSSVSYMYWYQQKPGSSPRLLIYDTSNLASGVPVRFSGSGSGTSYSLTISRMEAEDAATYYCQQWSSYPLTFGAGTKLEIKR | – | – | no binding | no binding | – | – | – | – | no binding | – |
| CRT5 (antibody, IgG1, V domains shown, also called C5) VH: AEVQLQQSGAELMKPGASVKISCKATGYTFSSYWIEWVNQRPGHGLEWIGEILPGSGSTNYNEKFKGKATFTADTSSNTAYMQLSSLTSEDSAVYYCARGGDYDEEYYAMDYWGQGTSVTL VL: QIVLTQSPAIMSASPGEKVTMTCSASSSVSYMYWYQQKPGSSPRLLIYDTSNLASGVPVRFSGSGSGTSYSLTISRMEAEDGATYYCQQWSSYPLTFGAGTKLELKR | – | – | no binding | no binding | – | – | – | – | no binding | – |
| CRT3 (antibody, IgG1, V domains shown, The VL entry ends with AAA from the cloning site; also called C3) VH: EVQLQQSGTVLARPGASVKMSCKASGYTFTSYWMHWVKQRPGQGLEWIGAIYPGNSDTSYNQKFKGKAKLTAVTSTSTAYMELSSLTNEDSAVFYCTHYYGSDYAMDYWGQGTSVTV VL: QIVLTQSPAIMSASLGERVTMTCTASSSVSSSYLHWYQQKPGSSPKLWIYSTSNLASGVPARFSGSGSGTSYSLTISSMEAEDAATYYCHQYHRSPRTFGGGTKLEIKR | – | – | no binding | no binding | binds | binds | binds | binds | – | binds |

From patent US20190085081A1 (CANCER RESEARCH TECHNOLOGY, published 2019)
